# Experimental data taken from US20090286723A1.
# T1: neuropeptide Y2 receptor (SK-N-BE cell membranes), P49146
# T1 chain: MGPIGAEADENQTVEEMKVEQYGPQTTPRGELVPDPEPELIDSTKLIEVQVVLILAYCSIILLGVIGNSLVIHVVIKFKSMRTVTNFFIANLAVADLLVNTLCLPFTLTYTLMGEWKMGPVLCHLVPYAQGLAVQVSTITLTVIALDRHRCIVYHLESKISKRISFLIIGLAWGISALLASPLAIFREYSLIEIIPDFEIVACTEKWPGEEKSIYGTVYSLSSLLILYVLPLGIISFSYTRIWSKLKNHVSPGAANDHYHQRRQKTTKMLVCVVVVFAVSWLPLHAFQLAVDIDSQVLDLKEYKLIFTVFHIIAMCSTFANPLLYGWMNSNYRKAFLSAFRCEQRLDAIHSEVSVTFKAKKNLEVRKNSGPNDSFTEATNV
# T2: CGRP receptors (SK-N-MC cell membranes), Q16602
# T2 chain 1: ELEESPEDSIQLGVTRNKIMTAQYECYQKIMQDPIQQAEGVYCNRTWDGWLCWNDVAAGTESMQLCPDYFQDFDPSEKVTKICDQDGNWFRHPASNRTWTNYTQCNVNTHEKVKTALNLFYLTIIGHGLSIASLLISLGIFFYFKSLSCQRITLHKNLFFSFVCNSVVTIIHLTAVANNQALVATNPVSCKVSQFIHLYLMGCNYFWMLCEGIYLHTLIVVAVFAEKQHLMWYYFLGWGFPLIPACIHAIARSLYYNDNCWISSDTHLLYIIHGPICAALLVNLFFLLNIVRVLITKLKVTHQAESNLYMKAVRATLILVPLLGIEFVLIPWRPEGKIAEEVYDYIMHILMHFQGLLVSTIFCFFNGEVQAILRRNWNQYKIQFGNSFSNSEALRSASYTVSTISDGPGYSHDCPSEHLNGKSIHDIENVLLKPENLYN
# T2 chain 2: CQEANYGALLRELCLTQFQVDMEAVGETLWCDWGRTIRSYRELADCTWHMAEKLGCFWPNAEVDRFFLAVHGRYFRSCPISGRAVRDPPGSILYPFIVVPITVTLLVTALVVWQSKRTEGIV
# T3: amylin receptors (rat nucleus accumbens membranes) (rat)
# T3 chain 1: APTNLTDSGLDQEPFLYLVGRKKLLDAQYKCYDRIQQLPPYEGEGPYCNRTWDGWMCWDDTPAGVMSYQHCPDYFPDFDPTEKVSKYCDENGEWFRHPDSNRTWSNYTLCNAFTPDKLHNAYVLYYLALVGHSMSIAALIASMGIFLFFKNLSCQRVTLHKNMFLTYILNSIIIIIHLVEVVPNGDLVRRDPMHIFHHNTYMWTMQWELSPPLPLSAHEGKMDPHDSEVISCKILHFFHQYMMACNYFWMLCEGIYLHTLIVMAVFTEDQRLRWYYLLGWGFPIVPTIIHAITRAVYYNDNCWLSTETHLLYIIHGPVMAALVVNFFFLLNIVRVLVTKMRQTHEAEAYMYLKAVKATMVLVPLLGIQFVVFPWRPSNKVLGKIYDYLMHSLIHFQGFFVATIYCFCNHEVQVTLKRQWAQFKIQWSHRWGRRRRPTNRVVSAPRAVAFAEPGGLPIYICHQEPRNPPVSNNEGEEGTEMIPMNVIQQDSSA
# T3 chain 2: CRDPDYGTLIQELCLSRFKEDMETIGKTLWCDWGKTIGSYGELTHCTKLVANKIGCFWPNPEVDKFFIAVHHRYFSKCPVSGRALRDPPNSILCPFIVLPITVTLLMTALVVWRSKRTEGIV
# Experiments:
# [1] = target: T1, neuropeptide Y2 receptor (SK-N-BE cell …); assay: [125I]-human PYY displacement, SK-N-BE membranes
# [2] = target: T2, CGRP receptors (SK-N-MC cell …); assay: 125I-hCGRP displacement, SK-N-MC membranes
# [3] = target: amylin receptors (rat nucleus accumbens membranes) (rat); assay: 125I-amylin displacement, rat nucleus accumbens membranes
# calcitonin receptor = assay: cell-based or functional assay
# [4] = target: GLP-1/GIP/CT (receptors read by the GLP-1/GIP/CT cyclase assay); assay: cell-based or functional assay
# [5] = target: T3, amylin receptors (rat nucleus accumbens …); assay: amylin receptor binding assay
# calcitonin receptor, sequence (P30988 whole entry): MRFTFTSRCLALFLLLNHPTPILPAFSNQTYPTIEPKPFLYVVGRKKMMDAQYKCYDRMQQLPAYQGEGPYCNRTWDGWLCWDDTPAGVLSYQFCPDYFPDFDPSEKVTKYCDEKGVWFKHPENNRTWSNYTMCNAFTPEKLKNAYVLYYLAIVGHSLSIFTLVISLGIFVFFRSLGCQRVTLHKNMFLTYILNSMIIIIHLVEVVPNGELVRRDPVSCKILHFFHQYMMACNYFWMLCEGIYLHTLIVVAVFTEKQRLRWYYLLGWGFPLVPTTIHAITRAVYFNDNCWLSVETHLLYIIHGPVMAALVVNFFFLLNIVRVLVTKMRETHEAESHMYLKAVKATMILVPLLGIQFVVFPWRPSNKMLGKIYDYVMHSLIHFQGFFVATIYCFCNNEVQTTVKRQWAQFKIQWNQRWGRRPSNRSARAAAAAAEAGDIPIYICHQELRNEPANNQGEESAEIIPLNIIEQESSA
Binder,Receptor Binding [1],Receptor Binding [2],Receptor Activation: CT cyclase (calcitonin receptor),Receptor Activation: GLP-1/GIP/CT cyclase [4],further results
"[#Mal-Bu-(bAla)-PYY-(3-36), amide] [#S-Prp-(bAla)-Compound 10, amide] (modifications not checked) chain 1: not shown chain 2: […]",0.2,–,–,–,–
KCNTATCATQRLANFLVRSSNNLGPVLPPTNVGSNTY (modifications not checked) [Rat amylin],–,21,326,5,Receptor Binding [3]: 0.05
"DFMGWMDFGKRKCNTATCATQRLANELVRLQTYPRTNVGSNTY (modifications not checked) [27(p-CH2SO3)-PheCCK8(26-33),G,K,R,15Glu,hAmy(1-17),18Arg,Sct(18-26),hAmy(32-37)]",–,4.4,–,1000,–
DFMGWMDFGKRKCNTATCATQRLANELVRLQTYPRTNVGSNTY (modifications not checked) [DF(P-CH2SO3)… …],–,–,–,–,IC50 [5]: 0.083 nM
"[#Suc-(bAla)-PYY-(3-36), amide] [#NH-Des-Lys1-Rat Amylin, amide] (modifications not checked) chain 1: not shown chain 2: CNTATCATQRLANFLVRSSNNLGPVLPPTNVGSNTY",0.39,–,645,–,–
